{"source": "patent US20130331325A1", "about": "(NEW YORK UNIVERSITY, published 2013)", "key": {"[1]": {"target": "T1, ligand-binding domain of human FGFR1c (D142 to R365) (human, UniProt P11362 142-365)", "T1 construct": "range 142-365", "T1 sequence (looked up)": "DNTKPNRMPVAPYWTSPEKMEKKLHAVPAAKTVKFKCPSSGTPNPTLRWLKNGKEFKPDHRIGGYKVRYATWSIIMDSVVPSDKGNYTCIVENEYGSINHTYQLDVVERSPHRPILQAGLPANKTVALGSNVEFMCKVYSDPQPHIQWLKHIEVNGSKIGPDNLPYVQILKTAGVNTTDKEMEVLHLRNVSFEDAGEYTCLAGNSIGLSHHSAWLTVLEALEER", "test": "SPR: FGFR1c ligand-binding domain over immobilized FGF21 (FIG. 10C)", "from_the_text": "(§1) FIGS. 10A-10D show overlays of SPR sensorgrams illustrating binding of FGFR1c to FGF2 (FIG. 10A), FGF19 (FIG. 10B), FGF21 (FIG. 10C), and FGF23 (FIG. 10D), and fitted saturation binding curves. Increasing concentrations of FGFR1c ligand-binding domain were passed over a biosensor chip containing immobilized FGF2, FGF19, FGF21, or FGF23. […] Increasing concentrations of αKlotho-FGFR1c complex were passed over a biosensor chip containing immobilized FGF23. […] FGF23^C-tail was immobilized on a biosensor chip and increasing concentrations of FGFR1c ligand-binding domain were passed over the chip. Dissociation constants (KDs) given in FIGS. 10A-10E were derived from the saturation binding curves."}, "[2]": {"target": "T2, ligand-binding domain of human FGFR1c (D142 to R365) (human, UniProt P11362 142-365)", "T2 chain": "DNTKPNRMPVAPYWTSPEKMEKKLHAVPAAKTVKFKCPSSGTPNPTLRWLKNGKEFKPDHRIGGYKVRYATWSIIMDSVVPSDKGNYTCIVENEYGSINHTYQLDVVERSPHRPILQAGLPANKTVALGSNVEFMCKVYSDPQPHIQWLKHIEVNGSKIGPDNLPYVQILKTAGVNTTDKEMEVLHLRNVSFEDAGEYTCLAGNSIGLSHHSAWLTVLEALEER", "test": "SPR"}, "[3]": {"target": "T3, binary complex of FGFR1c ligand-binding domain with αKlotho ectodomain (murine; human, UniProt P11362 142-365)", "T3 construct": "range 142-365; also called αKlotho-FGFR1c complex; binary αKlotho-FGFR1c complex; not shown: C-terminal FLAG tag", "T3 sequence 1": "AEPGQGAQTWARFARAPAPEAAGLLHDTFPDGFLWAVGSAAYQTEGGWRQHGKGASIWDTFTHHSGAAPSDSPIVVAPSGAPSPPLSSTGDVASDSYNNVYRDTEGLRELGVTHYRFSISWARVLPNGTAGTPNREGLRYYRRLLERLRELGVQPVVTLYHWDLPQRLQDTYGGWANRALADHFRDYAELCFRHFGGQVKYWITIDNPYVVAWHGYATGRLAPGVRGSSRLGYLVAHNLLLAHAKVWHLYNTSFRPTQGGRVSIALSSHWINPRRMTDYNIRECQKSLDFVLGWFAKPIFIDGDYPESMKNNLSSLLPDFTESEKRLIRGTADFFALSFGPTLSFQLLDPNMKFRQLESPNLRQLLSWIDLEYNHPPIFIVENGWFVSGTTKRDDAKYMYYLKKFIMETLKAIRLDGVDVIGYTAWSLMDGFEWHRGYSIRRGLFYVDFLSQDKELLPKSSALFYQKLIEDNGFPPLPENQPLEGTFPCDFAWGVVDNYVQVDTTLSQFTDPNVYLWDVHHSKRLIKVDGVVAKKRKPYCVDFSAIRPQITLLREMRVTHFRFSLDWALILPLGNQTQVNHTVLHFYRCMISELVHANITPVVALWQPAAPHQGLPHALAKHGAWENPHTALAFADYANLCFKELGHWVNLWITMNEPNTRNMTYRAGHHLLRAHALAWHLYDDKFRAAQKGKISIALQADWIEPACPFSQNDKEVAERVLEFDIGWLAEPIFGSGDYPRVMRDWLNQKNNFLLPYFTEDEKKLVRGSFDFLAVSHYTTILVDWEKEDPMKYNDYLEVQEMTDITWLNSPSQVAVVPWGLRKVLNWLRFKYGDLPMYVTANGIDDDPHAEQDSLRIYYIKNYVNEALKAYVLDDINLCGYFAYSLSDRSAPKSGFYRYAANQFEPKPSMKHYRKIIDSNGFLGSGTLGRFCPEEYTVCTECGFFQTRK", "T3 sequence 2": "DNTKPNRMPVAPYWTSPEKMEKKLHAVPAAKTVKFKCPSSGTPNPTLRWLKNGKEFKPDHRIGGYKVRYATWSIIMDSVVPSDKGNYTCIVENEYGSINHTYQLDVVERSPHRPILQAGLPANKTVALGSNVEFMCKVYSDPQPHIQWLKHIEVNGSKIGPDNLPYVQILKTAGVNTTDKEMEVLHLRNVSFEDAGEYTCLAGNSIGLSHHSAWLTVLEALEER", "test": "SPR: immobilized FGF23; αKlotho-FGFR1c complex (FIG. 10E) against FGFR1c ligand-binding domain alone (FIG. 10D)", "from_the_text": "as §1\nIn the target tissue, Klotho co-receptors constitutively associate with cognate receptors of endocrine FGFs to offset the inherently low receptor-binding affinity of endocrine FGFs (FIGS. 10B-10D; Kurosu et al., J. Biol. Chem. 282:26687-26695 (2007); Kurosu et al., J. Biol. Chem. 281:6120-6123 (2006); Ogawa et al., Proc. Nat'l. Acad. Sci. U.S.A. 104:7432-7437 (2007); Urakawa et al., Nature 444:770-774 (2006), which are hereby incorporated by reference in their entirety). […]"}, "[4]": {"target": "T4, binary complex of FGFR1c ligand-binding domain with αKlotho ectodomain (human, UniProt P11362 142-365)", "T4 chain 1": "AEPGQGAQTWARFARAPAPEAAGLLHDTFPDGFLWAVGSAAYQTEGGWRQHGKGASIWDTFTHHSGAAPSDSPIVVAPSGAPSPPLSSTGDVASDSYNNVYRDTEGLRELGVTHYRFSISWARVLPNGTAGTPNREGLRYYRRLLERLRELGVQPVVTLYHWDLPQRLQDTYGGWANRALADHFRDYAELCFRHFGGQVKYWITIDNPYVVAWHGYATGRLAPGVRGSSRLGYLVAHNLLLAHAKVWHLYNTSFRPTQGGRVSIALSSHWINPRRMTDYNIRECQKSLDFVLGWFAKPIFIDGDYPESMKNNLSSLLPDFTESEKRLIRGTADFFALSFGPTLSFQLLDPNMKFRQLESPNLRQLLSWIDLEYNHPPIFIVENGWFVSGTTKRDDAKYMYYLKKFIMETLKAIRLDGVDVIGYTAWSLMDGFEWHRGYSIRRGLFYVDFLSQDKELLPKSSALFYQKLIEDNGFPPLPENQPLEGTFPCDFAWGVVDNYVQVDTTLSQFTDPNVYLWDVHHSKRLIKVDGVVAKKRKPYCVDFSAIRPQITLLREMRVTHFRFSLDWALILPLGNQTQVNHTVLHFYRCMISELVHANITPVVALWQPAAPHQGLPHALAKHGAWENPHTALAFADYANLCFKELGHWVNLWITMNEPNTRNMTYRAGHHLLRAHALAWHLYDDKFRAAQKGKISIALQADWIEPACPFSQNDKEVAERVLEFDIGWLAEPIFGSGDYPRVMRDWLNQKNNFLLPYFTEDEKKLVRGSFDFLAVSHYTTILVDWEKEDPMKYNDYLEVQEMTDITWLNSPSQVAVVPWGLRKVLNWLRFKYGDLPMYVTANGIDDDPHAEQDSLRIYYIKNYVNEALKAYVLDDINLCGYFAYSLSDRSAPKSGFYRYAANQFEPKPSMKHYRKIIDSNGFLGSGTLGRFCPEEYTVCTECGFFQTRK", "T4 chain 2": "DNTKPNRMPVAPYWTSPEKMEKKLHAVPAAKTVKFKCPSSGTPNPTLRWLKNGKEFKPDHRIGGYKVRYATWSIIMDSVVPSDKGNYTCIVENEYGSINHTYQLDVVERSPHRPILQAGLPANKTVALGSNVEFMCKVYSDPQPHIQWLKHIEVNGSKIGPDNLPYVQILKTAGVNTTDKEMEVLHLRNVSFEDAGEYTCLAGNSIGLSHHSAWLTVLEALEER", "test": "SPR"}, "[5]": {"target": "T3, binary complex of FGFR1c ligand-binding …", "test": "SPR competition: increasing chimera with a fixed concentration of αKlotho-FGFR1c complex over immobilized FGF23 (competitor)", "from_the_text": "FIGS. 7A and 7B show overlays of SPR sensorgrams illustrating inhibition by FGF2^ΔHBScore-FGF23^C-tail (FIG. 7A) or FGF23 (FIG. 7B) of αKlotho-FGFR1c binding to FGF23 immobilized on a biosensor chip. Increasing concentrations of FGF2^ΔHBScore-FGF23^C-tail or FGF23 were mixed with a fixed concentration of αKlotho-FGFR1c complex, and the mixtures were passed over a FGF23 chip. […] FGF2 and αKlotho-FGFR1c complex were mixed at a molar ratio of 15:1, and the mixture was passed over a biosensor chip containing immobilized FGF23. FIGS. 7D and 7E show overlays of SPR sensorgrams illustrating no inhibition by FGF2^ΔHBScore-FGF23^C-tail (FIG. 7D) or FGF23 (FIG. 7E) of βKlotho-FGFR1c binding to FGF21. FGF2^ΔHBScore-FGF23^C-tail or FGF23 were mixed with βKlotho-FGFR1c complex at a molar ratio of 10:1, and the mixtures were passed over a biosensor chip containing immobilized FGF21. […] Wild-type mice and αKlotho knockout mice were given 0.21 mg and 0.51 mg of protein, respectively, per kg of body weight. Data are presented as mean±SEM; **, P<0.01; ***, P<0.001 by ANOVA. […]\nTo determine whether the FGF2^ΔHBScore-FGF23^C-tail and FGF2^ΔHBScore-FGF21^C-tail chimeras gained the ability to signal in a Klotho co-receptor-dependent, endocrine fashion, it was first analyzed whether these chimeras can form ternary complexes with FGFR1c and Klotho co-receptor. […]"}, "[6]": {"target": "T1, ligand-binding domain of human FGFR1c …", "test": "SPR: FGF23^C-tail immobilized on chip, increasing concentrations of FGFR1c ligand-binding domain passed over (FIG. 10F)", "from_the_text": "as §1"}}}
{"binder": "N-terminally hexahistidine-tagged, mature form of human FGF21 (H29 to S209) (ligand, also called native FGF21; not shown: N-terminal hexahistidine tag) HPIPDSSPLLQFGGQVRQRYLYTDDAQQTEAHLEIREDGTVGGAADQSPESLLQLKALKPGVIQILGVKTSRFLCQRPDGALYGSLHFDPEACSFRELLLEDGYNVYQSEAHGLPLHLPGNKSPHRDPAPRGPARFLPLPGLPPALPEPPGILAPQPPDVGSSDPLSMVGPSQGRSPSYAS", "values": [{"measurement": "binding result", "setting": "[1]", "result": "binds"}, {"measurement": "Kd", "setting": "[2]", "result": 2520, "unit": "nM"}]}
{"binder": "N-terminally hexahistidine-tagged, mature form of human FGF23 (Y25 to I251) with arginines 176 and 179 replaced with glutamine (ligand, also called native FGF23; wild-type FGF23; not shown: N-terminal hexahistidine tag) YPNASPLLGSSWGGLIHLYTATARNSYHLQIHKNGHVDGAPHQTIYSALMIRSEDAGFVVITGVMSRRYLCMDFRGNIFGSHYFDPENCRFQHQTLENGYDVYHSPQYHFLVSLGRAKRAFLPGMNPPPYSQFLSRRNEIPLIHFNTPIPRQHTQSAEDDSERDPLNVLKPRARMTPAPASCSQELPSAEDNSPMASDPLGVVRGGRVNTHAGGTGPEGCRPFAKFI", "values": [{"measurement": "fold enhancement of the affinity of FGF23 for FGFR1c by αKlotho (against FGFR1c alone)", "setting": "[3]", "result": "> 20", "unit": "fold"}, {"measurement": "Kd", "setting": "[2]", "result": 648, "unit": "nM"}, {"measurement": "Kd", "setting": "[4]", "result": 27.4, "unit": "nM"}]}
{"binder": "FGF2^ΔHBScore-FGF23^C-tail chimera (designed binder, Core domain of FGF2 (M1 to M151, K128D/R129Q/K134V, C78S/C96S) joined to the C-terminal region of FGF23 (R161 to I251, R176Q/R179Q)) MAAGSITTLPALPEDGGSGAFPPGHFKDPKRLYCKNGGFFLRIHPDGRVDGVREKSDPHIKLQLQAEERGVVSIKGVSANRYLAMKEDGRLLASKSVTDECFFFERLESNNYNTYRSRKYTSWYVALDQTGQYVLGSKTGPGQKAILFLPMRNEIPLIHFNTPIPRQHTQSAEDDSERDPLNVLKPRARMTPAPASCSQELPSAEDNSPMASDPLGVVRGGRVNTHAGGTGPEGCRPFAKFI", "values": [{"measurement": "binding result", "setting": "[5]", "result": "binds"}]}
{"binder": "N-terminally hexahistidine-tagged C-terminal tail peptide of FGF23 (S180 to I251) (also called FGF23^C-tail; not shown: N-terminal hexahistidine tag) peptide: SAEDDSERDPLNVLKPRARMTPAPASCSQELPSAEDNSPMASDPLGVVRGGRVNTHAGGTGPEGCRPFAKFI", "values": [{"measurement": "binding result", "setting": "[6]", "result": "no binding"}]}
